Assay results as given in patent US20170014503A1.

How the values were obtained:
[1] = biological target: SP62-L669S (gp41 652-671)-GTH1 peptide anchored to liposomes (HIV-1); assay: BIAcore SPR on liposome-anchored peptide; encounter-docking model A + B <-> AB (encounter) <-> ABx (docked); association of the encounter step
[2] = biological target: SP62 (gp41 652-671)-GTH1 peptide anchored to liposomes (HIV-1); assay: as above
[3] = biological target: SP62-L669S (gp41 652-671)-GTH1 peptide anchored to liposomes (HIV-1); assay: BIAcore SPR on liposome-anchored peptide; encounter-docking model; forward rate of the docking step
[4] = biological target: SP62 (gp41 652-671)-GTH1 peptide anchored to liposomes (HIV-1); assay: as above
[5] = biological target: SP62-L669S (gp41 652-671)-GTH1 peptide anchored to liposomes (HIV-1); assay: BIAcore SPR on liposome-anchored peptide; encounter-docking model; dissociation of the encounter step
[6] = biological target: SP62 (gp41 652-671)-GTH1 peptide anchored to liposomes (HIV-1); assay: as above
[7] = biological target: SP62-L669S (gp41 652-671)-GTH1 peptide anchored to liposomes (HIV-1); assay: BIAcore SPR on liposome-anchored peptide; encounter-docking model; reverse rate of the docking step
[8] = biological target: SP62 (gp41 652-671)-GTH1 peptide anchored to liposomes (HIV-1); assay: as above
[9] = biological target: SP62-L669S (gp41 652-671)-GTH1 peptide anchored to liposomes (HIV-1); assay: SPR, peptide anchored to phospholipid liposomes
[10] = biological target: SP62 (gp41 652-671)-GTH1 peptide anchored to liposomes (HIV-1); assay: SPR, peptide anchored to phospholipid liposomes

Substance: 2F5 mAb (antibody)
- ka1 [1]: 498000 M⁻¹ s⁻¹
- ka1 [2]: 931000 M⁻¹ s⁻¹
- ka2 [3]: 0.0054 s⁻¹
- ka2 [4]: 0.0181 s⁻¹
- reactivity value in column 'KYNU wt' (KYNU wt): 3.63
- reactivity value in column 'KYNU mut' (KYNU mut): 0.465
- kd1 [5]: 0.00119 s⁻¹
- kd1 [6]: 0.00692 s⁻¹
- kd2 [7]: 2e-05 s⁻¹
- kd2 [8]: 0.00037 s⁻¹
- response unit (background subtracted) at 10 seconds after the injection was stopped [9]: 617 RU
- response unit at 10 seconds after the injection was stopped [10]: 495 RU
